From publication doi:10.1101/405654

Target: GMPCPP-stabilised, rhodamine labelled microtubules (porcine brain tubulin) (porcine (purified from porcine brain)) (UniProt P02550)
Experiment: single-molecule TIRF microscopy

Sequence of UniProt P02550 (P02550 whole entry): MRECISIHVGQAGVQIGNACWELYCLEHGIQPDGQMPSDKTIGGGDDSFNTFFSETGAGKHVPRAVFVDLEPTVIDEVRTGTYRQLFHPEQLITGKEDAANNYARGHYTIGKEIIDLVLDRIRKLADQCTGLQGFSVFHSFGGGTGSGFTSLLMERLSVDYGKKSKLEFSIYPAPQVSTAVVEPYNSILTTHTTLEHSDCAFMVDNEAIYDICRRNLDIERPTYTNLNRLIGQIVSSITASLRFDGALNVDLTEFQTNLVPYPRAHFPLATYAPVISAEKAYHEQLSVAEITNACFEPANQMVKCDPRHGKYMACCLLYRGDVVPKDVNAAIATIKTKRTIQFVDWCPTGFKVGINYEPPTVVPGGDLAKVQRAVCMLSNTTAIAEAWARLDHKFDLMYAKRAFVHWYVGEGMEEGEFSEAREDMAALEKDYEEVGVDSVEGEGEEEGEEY

Substance | microtubule end residence time
Rat kinesin-1 rKin430-GFP-h6 G262K (domain or fragment) | 0.74 s
Rat kinesin-1 rKin430-GFP-h6 N263E (domain or fragment) | 0.98 s
Rat kinesin-1 rKin430-GFP-h6 S266A (domain or fragment) | 0.8 s
Rat kinesin-1 rKin430-GFP-h6 S266R (domain or fragment) | 1.39 s
Rat kinesin-1 rKin430-GFP-h6 triple mutant (G262K, N263E, S266R) (domain or fragment) | 0.97 s
Rat kinesin-1 rKin430-GFP-h6, wild type (domain or fragment) | 0.35 s
